Columns and labels:
[1] = molecular target: purified bovine cation-independent mannose 6-phosphate receptor (CI-MPR) (bovine) (UniProt P08169); assay: plate assay: conditioned medium on immobilized bovine CI-MPR, bound enzyme by 4-MU activity, linear range points
[2] = molecular target: purified bovine cation-independent mannose 6-phosphate receptor (CI-MPR) (bovine) (UniProt P08169); assay: plate assay: conditioned medium on immobilized bovine CI-MPR, bound enzyme by 4-MU activity

UniProt P08169, sequence (P08169 45-2313 limits assumed): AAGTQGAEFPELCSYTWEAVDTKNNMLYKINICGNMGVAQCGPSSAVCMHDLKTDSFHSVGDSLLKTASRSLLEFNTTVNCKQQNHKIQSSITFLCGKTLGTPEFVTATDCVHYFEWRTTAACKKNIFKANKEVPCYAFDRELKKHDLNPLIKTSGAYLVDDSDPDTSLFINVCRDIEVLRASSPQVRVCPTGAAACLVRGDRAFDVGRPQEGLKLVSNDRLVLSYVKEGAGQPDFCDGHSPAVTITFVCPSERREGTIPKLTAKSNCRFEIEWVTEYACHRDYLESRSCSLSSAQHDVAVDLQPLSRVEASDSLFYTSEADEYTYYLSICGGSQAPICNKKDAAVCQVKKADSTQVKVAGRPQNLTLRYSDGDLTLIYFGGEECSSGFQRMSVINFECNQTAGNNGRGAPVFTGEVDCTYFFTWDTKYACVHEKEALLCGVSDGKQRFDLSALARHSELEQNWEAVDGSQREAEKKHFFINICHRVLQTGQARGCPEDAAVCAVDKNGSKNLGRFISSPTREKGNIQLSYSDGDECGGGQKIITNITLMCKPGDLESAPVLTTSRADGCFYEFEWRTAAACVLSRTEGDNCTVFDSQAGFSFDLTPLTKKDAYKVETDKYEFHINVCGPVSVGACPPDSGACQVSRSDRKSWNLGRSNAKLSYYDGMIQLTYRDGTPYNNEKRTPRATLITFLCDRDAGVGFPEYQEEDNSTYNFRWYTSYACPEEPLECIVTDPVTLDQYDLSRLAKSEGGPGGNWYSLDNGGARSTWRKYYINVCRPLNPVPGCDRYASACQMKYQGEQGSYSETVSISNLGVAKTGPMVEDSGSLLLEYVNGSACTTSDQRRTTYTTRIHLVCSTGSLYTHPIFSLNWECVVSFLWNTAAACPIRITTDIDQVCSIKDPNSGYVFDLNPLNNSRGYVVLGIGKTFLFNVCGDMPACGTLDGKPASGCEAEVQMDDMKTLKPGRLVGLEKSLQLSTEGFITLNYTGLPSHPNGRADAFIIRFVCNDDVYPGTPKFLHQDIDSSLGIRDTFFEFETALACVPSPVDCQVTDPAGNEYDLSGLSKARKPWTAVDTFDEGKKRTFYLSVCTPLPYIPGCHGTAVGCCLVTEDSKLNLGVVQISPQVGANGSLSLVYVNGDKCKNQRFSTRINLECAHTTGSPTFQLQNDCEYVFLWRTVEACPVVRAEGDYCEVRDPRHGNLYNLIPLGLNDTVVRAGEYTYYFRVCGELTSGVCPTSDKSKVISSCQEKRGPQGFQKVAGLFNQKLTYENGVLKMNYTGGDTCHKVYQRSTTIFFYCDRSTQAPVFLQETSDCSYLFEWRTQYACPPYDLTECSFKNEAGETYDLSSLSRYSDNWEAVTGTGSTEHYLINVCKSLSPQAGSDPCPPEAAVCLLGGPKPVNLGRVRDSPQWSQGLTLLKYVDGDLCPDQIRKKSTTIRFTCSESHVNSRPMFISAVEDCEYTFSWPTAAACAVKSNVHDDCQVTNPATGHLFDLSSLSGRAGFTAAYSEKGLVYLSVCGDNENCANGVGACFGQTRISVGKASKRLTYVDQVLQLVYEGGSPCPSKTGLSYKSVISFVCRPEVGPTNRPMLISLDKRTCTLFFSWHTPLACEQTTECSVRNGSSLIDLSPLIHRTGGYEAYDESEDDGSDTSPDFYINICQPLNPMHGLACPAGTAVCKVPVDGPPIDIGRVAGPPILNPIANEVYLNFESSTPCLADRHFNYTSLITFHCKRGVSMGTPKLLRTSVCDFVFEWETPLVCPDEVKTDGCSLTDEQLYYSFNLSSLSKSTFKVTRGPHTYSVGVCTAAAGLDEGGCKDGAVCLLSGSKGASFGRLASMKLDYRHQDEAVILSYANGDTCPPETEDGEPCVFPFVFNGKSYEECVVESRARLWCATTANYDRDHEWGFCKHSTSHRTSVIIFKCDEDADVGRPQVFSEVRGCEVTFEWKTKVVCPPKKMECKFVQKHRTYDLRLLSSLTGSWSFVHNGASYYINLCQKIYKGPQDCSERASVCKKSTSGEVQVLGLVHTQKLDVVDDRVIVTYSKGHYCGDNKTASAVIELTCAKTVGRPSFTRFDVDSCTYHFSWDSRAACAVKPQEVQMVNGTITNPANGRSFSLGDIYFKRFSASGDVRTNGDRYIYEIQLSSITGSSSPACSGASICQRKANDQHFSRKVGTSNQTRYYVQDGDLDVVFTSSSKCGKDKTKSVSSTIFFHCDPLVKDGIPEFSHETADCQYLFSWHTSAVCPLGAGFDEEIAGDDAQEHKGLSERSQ

Row | Substance | percentage of receptor binding [1] [%] | fold of percentage bound against GBA produced by endogenous phosphotransferase [2] [fold] | fold of binding percentage against GLA sample [2] [fold] | overall binding percentage [2] [%]
1 | human acid beta-glucosidase (GBA) produced from GBA single expression plasmid in Expi293 cells (endogenous phosphotransferase) (from UniProt P04062 40-536) (enzyme) | 4.5 | – | – | –
2 | human acid beta-glucosidase (GBA) produced by co-transfection of GBA plasmid and CMV-S1S3 plasmid in Expi293 cells (from UniProt P04062 40-536) (enzyme) | 43 | – | – | –
3 | human acid beta-glucosidase (GBA) produced from bicistronic plasmid pLL11 (pCMV-hGBA-IRES-S1S3) in Expi293 cells (from UniProt P04062 40-536) (enzyme) | 44 | 10 | – | –
4 | human alpha-galactosidase (GLA) produced from bicistronic plasmid pLL51 in Expi293 cells (from UniProt P06280 32-429) (enzyme) | – | – | 2 | 62.1
5 | human alpha-galactosidase (GLA) produced from GLA single plasmid in Expi293 cells (from UniProt P06280 32-429) (enzyme) | – | – | – | 33.1

Source: US20220380800A1
